{
  "source": "paper PMC12578638",
  "key": {"[1]": {"biological_target": "hDPEP1-Avi (human DPEP1 residues 17-385) (human) (UniProt P16444)", "sequence (P16444 17-385)": "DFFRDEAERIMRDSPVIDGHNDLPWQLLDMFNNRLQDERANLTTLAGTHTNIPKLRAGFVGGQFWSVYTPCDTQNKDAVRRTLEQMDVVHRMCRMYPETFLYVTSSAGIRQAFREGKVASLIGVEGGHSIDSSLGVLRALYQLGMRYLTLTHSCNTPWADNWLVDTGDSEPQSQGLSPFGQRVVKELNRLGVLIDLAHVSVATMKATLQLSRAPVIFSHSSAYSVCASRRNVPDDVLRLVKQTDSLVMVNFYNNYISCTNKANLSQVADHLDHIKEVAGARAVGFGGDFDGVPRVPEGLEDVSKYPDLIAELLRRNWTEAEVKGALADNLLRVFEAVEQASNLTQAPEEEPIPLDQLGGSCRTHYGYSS", "assay": "BLI"}, "[2]": {"biological_target": "biotinylated pDPEP1-Avi (pig DPEP1 residues 17-385) (pig (Sus scrofa)) (UniProt P22412)", "sequence (P22412 17-385)": "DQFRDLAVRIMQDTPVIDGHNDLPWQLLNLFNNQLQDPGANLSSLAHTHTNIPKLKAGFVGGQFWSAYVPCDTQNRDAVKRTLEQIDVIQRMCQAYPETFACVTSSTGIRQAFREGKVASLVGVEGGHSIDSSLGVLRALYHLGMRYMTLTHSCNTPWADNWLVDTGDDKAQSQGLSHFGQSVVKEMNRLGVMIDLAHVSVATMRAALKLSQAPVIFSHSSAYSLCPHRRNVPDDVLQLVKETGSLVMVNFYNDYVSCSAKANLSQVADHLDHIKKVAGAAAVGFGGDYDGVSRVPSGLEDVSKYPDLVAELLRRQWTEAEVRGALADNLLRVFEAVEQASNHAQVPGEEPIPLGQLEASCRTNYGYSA", "assay": "BLI"}},
  "data": [
    {"substance": "PHEV spike RBD (residues 327-605), from Expi293F cells (domain or fragment)", "values": [
      {"measurement": "Kd", "setting": "[1]", "result": 2990, "unit": "nM"},
      {"measurement": "Kd", "setting": "[2]", "result": 1500, "unit": "nM"}
    ]}
  ]
}
